According to publication PMC6739322, “The molecular basis of chaperone-mediated interleukin 23 assembly control” (Nature Communications, 2019):

Biological target: T1, IL-12β (purified alone) (human, UniProt P29460 23-328)
T1 construct: interleukin-12 subunit beta (IL-12β), human; The C-terminal His-tag has a TEV cleavage site and is separated by a GS linker, so residues may be left after cleavage; also called unlabeled IL-12β; source: ExpiCHO, transiently transfected, purified from supernatant (HisTrap, TEV, SEC); not shown: His-tag, C-terminal, cleaved
T1 sequence (looked up): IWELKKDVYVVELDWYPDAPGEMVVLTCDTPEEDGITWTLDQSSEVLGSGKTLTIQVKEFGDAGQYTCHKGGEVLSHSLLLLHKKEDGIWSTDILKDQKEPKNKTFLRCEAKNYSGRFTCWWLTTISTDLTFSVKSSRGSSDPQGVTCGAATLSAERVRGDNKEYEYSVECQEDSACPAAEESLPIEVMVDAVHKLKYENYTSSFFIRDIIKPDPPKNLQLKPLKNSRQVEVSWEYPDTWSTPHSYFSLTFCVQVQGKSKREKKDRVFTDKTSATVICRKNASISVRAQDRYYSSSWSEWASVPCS
Assay: NMR titration; 1H,15N HSQC of 15N-labelled IL-23α^VVS (100 μM) without and with a two-fold molar excess of unlabeled IL-12β; 10 mM KPi pH 7.5, 298 K
Conditions: both partners purified

B1: IL-23α^C14,22V,C54S (purified) (natural protein, human)
chain: RAVPGGSSPAWTQVQQLSQKLVTLAWSAHPLVGHMDLREEGDEETTNDVPHIQSGDGCDPQGLRDNSQFCLQRIHQGLIFYEKLLGSDIFTGEPSLLPDSPVGQLHASLLGLSQLLQPEGHHWETQQIPSLSPSQPWQRLLLRFKILRSLQAFVAVAARVFAHGAATLSP
notes: interleukin-23 subunit alpha (IL-23α), human; The His-tag has a TEV site and is separated by a 2x GS linker, so residues may be left after cleavage; The protein was 15N-labelled for NMR; The internal disulfide C58-C70 is formed; also called IL-23α^VVS; not shown: His-tag, N-terminal, cleaved
B1: binds.
